The values below come from US20230287118A1 (published 2023).

Common to all, as to test: cell-based or functional assay
Assay [1] addresses T1, human CD20 (human, UniProt P11836 1-297).
T1 sequence (looked up): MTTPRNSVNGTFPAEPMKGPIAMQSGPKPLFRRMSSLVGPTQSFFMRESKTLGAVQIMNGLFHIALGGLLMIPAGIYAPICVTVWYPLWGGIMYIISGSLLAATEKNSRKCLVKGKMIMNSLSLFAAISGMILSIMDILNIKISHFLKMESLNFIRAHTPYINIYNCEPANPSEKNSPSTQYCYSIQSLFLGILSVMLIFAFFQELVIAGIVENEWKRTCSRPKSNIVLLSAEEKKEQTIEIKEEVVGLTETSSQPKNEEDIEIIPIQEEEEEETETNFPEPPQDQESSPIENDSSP

The target of assay [2] is T2, human CD3 (human, UniProt P07766 23-207).
The target of assay [3] is T1, human CD20. This is another data set of the same source.
Assay [4] addresses T1, human CD20. The source holds these as a separate data set.
The target of assay [5] is T1, human CD20. The source holds these as a separate data set.
Assay [6] deals with T2, human CD3. This is another data set of the same source.

Changes are numbered by the printed parent chain.

B1: anti-CD20/anti-CD3 TCB molecule H: "1+1 CrossMab" with charge modifications (VH/VL exchange in CD3 binder, charge modification in CD20 binder) (bispecific antibody, human IgG1, kappa, N297G)
heavy 1: not shown
heavy 2: QAVVTQEPSLTVSPGGTVTLTCGSSTGAVTTSNYANWVQEKPGQAFRGLIGGTNKRAPGTPARFSGSLLGGKAALTLSGAQPEDEAEYYCALWYSNLWVFGGGTKLTVLSSASTKGPSVFPLAPSSKSTSGGTAALGCLVKDYFPEPVTVSWNSGALTSGVHTFPAVLQSSGLYSLSSVVTVPSSSLGTQTYICNVNHKPSNTKVDKKVEPKSCDKTHTCPPCPAPELLGGPSVFLFPPKPKDTLMISRTPEVTCVVVDVSHEDPEVKFNWYVDGVEVHNAKTKPREEQYGSTYRVVSVLTVLHQDWLNGKEYKCKVSNKALPAPIEKTISKAKGQPREPQVYTLPPCRDELTKNQVSLWCLVKGFYPSDIAVEWESNGQPENNYKTTPPVLDSDGSFFLYSKLTVDKSRWQQGNVFSCSVMHEALHNHYTQKSLSLSP
light 1: DIVMTQTPLSLPVTPGEPASISCRSSKSLLHSNGITYLYWYLQKPGQSPQLLIYQMSNLVSGVPDRFSGSGSGTDFTLKISRVEAEDVGVYYCAQNLELPYTFGGGTKVEIKRTVAAPSVFIFPPSDRKLKSGTASVVCLLNNFYPREAKVQWKVDNALQSGNSQESVTEQDSKDSTYSLSSTLTLSKADYEKHKVYACEVTHQGLSSPVTKSFNRGEC
light 2: EVQLLESGGGLVQPGGSLRLSCAASGFTFSTYAMNWVRQAPGKGLEWVSRIRSKYNNYATYYADSVKGRFTISRDDSKNTLYLQMNSLRAEDTAVYYCVRHGNFGNSYVSWFAYWGQGTLVTVSSASVAAPSVFIFPPSDEQLKSGTASVVCLLNNFYPREAKVQWKVDNALQSGNSQESVTEQDSKDSTYSLSSTLTLSKADYEKHKVYACEVTHQGLSSPVTKSFNRGEC
Regarding B1, the “EC50 of tumor cell lysis (LDH release), Z138 cells + human PBMCs, 21-24 h, panel A” value in the assay with human CD20 [1] was determined as 0.0175 nM. Besides, in the assay with human CD3 [2], the “EC50 of CD3 activation, Jurkat-NFAT reporter cells co-cultured with Z138 cells (luminescence, 6 h)” value was found to be 1 nM. Besides, in the assay with human CD20 [3], the “EC50 24 h of tumor lysis, Ocly-18 cells” value is 0.25 nM; the “EC50 24 h of tumor lysis, SU-DHL-5 cells” value worked out at 0.0697 nM; the “EC50 24 h of tumor lysis, SU-DHL-8 cells” value was 0.219 nM; the “EC50 24 h of tumor lysis, Toledo cells” value worked out at 0.12 nM. The “EC50 24 h of tumor lysis, U2932 cells” value in the assay with human CD20 [3] came to 0.0727 nM. Besides, the “EC50 24 h of B cell depletion in normal human whole blood” value in the assay with human CD20 [4] turned out to be 3.75 nM. Besides, in the assay with human CD20 [5], the “EC50 24 h of CD4 T cell activation, Z138 cells (average of 3 donors)” value was determined as 0.122 nM; the “EC50 24 h of CD8 T cell activation, Z138 cells (average of 3 donors)” value is 0.175 nM; the “EC50 24 h of tumor lysis, Z138 cells (average of 3 donors)” value came out at 0.751 nM.

B2: anti-CD20/anti-CD3 TCB molecule C: "2+1 IgG CrossFab" with charge modifications (VH/VL exchange in CD3 binder, charge modification in CD20 binders) (bispecific antibody)
heavy 1: not shown
heavy 2: QVQLVQSGAEVKKPGSSVKVSCKASGYAFSYSWINWVRQAPGQGLEWMGRIFPGDGDTDYNGKFKGRVTITADKSTSTAYMELSSLRSEDTAVYYCARNVFDGYWLVYWGQGTLVTVSSASTKGPSVFPLAPSSKSTSGGTAALGCLVEDYFPEPVTVSWNSGALTSGVHTFPAVLQSSGLYSLSSVVTVPSSSLGTQTYICNVNHKPSNTKVDEKVEPKSCDKTHTCPPCPAPEAAGGPSVFLFPPKPKDTLMISRTPEVTCVVVDVSHEDPEVKFNWYVDGVEVHNAKTKPREEQYNSTYRVVSVLTVLHQDWLNGKEYKCKVSNKALGAPIEKTISKAKGQPREPQVCTLPPSRDELTKNQVSLSCAVKGFYPSDIAVEWESNGQPENNYKTTPPVLDSDGSFFLVSKLTVDKSRWQQGNVFSCSVMHEALHNHYTQKSLSLSP
light 1: B1 light 1
light 2: B1 light 2
As for B2, in the assay with human CD20 [1], the “EC50 of tumor cell lysis (LDH release), Z138 cells + human PBMCs, 21-24 h, panel B” value was determined as 0.0433 nM.

B3: anti-CD20/anti-CD3 TCB molecule A: "2+1 IgG CrossFab, inverted" without charge modifications (CH1/CL exchange in CD3 binder) (bispecific antibody)
chain 1: not shown
chain 2: B2 heavy 2 with E149K, E215K
chain 3: QAVVTQEPSLTVSPGGTVTLTCGSSTGAVTTSNYANWVQEKPGQAFRGLIGGTNKRAPGTPARFSGSLLGGKAALTLSGAQPEDEAEYYCALWYSNLWVFGGGTKLTVLSSASTKGPSVFPLAPSSKSTSGGTAALGCLVKDYFPEPVTVSWNSGALTSGVHTFPAVLQSSGLYSLSSVVTVPSSSLGTQTYICNVNHKPSNTKVDKKVEPKSC
chain 4: B1 light 1 with R128E, K129Q
As for B3, in the assay with human CD20 [1], the “EC50 of tumor cell lysis (LDH release), Z138 cells + human PBMCs, 21-24 h, panel A” value came to 0.00076 nM.

B4: anti-Her2/anti-CD3 "2+1 IgG CrossFab, inverted" molecule with charge modifications (Her2 TCB) (bispecific antibody)
chain 1: not shown
chain 2: not shown
chain 3: not shown
light: B1 light 2
On to B4, for which the “EC50 of activation of Jurkat-NFAT reporter cells co-cultured with KPL4 cells (luminescence, 5 h)” value with human CD3 [6] amounted to 0.0344 nM.
